Data set [1] addresses T1, Kdh holoenzyme (KdhL, KdhM, KdhS); 6-hydroxypseudooxynicotine 2-oxidoreductase; ketone dehydrogenase (Paenarthrobacter nicotinovorans, UniProt Q933N0).
T1 construct: gene kdhC; kdhLMS co-expressed from pART2-kdhLMS in A. nicotinovorans pAO1; Ni-NTA (tag not described) and Superdex 200; KdhL 87 kDa, KdhM 287 residues, KdhS 160 residues; heterotrimer, dimer of heterotrimers in crystal; with 6-hydroxypseudooxynicotine dehydrogenase complex subunit alpha; 6-hydroxypseudooxynicotine dehydrogenase complex subunit beta
T1 sequence (Q933N0 1-794): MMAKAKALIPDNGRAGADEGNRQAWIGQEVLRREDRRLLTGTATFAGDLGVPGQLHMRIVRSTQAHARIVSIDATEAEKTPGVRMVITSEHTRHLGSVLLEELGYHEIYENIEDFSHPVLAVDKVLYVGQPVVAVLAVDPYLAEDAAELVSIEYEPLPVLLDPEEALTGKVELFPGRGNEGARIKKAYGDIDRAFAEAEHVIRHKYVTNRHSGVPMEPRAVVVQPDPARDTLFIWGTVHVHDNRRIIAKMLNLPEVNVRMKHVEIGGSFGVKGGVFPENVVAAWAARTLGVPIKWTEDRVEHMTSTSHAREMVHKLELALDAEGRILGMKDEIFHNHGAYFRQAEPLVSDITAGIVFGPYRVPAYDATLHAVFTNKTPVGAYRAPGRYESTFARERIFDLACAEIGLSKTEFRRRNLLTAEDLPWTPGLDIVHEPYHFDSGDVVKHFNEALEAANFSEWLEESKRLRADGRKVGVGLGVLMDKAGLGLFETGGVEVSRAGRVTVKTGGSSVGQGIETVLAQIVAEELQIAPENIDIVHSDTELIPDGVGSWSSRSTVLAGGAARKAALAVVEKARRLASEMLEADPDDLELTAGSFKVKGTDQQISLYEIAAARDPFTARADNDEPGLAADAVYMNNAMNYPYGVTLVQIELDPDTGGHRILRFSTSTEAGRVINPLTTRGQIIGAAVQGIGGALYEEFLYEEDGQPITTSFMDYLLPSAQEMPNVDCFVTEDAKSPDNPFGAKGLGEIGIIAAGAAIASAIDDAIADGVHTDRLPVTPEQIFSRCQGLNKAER
T1 sequence (O87681 1-296 partner): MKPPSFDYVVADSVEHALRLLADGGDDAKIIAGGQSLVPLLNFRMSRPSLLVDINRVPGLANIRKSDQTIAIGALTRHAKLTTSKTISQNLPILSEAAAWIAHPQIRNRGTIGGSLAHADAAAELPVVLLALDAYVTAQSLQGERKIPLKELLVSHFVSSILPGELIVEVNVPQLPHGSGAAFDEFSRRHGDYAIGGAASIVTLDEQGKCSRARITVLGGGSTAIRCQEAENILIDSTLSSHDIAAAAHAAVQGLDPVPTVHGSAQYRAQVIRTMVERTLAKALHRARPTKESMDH
T1 sequence (O87682 2-160 partner): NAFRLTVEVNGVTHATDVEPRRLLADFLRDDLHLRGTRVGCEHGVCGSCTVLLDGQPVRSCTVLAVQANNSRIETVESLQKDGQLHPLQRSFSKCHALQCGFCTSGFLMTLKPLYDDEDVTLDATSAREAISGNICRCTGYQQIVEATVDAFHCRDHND
The data set is described as follows: X-ray crystal structure, […] Å. As to conditions: co-purified cofactor, MCD site in KdhL. It is filed as binding.

The target in data set [2] is T2, Kdh holoenzyme, FAD site in KdhM (Paenarthrobacter nicotinovorans, UniProt O87681).
T2 construct: gene kdhA; same holoenzyme as P1; KdhM 287 residues, 32 kDa, holds FAD; with 6-hydroxypseudooxynicotine dehydrogenase complex subunit gamma; 6-hydroxypseudooxynicotine dehydrogenase complex subunit beta
T2 sequence (O87681 1-296): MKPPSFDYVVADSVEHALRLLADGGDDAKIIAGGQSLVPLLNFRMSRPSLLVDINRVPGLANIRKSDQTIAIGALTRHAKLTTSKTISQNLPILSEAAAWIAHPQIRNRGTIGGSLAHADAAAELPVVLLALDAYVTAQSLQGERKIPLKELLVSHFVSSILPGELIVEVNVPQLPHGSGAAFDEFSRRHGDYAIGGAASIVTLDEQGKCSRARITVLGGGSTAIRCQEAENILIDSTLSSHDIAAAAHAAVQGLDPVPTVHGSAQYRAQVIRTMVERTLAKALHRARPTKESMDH
T2 sequence (Q933N0 1-794 partner): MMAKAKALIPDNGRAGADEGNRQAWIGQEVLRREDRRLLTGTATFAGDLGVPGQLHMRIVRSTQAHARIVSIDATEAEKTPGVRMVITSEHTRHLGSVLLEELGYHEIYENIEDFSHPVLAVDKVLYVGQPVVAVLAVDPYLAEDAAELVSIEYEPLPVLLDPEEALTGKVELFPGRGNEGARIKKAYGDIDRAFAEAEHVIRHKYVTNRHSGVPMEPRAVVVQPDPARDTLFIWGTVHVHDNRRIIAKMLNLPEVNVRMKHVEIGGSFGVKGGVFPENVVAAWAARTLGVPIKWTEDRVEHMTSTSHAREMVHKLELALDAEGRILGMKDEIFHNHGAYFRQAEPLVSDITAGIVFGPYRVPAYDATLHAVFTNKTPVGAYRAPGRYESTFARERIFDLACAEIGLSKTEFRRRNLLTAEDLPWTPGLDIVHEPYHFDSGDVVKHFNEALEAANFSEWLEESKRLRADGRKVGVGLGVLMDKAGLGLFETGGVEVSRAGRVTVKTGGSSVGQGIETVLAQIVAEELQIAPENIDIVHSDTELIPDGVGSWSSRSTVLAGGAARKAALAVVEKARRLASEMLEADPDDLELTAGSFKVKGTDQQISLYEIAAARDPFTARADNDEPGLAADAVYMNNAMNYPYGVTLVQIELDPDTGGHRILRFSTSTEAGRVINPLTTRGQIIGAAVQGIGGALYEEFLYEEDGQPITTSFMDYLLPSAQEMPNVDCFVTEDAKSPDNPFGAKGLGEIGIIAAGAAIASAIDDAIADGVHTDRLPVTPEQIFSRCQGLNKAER
T2 sequence (O87682 2-160 partner): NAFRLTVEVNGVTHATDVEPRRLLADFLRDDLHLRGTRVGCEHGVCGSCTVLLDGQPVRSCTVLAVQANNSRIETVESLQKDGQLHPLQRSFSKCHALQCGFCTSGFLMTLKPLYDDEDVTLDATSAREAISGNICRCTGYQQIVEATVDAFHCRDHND
The data set is described as follows: X-ray crystal structure, […] Å. It is filed as binding. To be noted: co-purified cofactor.

Substrate in the data set “purified protein”: CNCCCC(=O)c1ccc(O)nc1
Nature of the data set: purified protein. It is filed as biochemical, Paenarthrobacter nicotinovorans. As to conditions: 500 μM PMS, 50 μM DCIP, aerobic, 30 °C, pH 8.0, Tris-HCl per Table 2 (Table 3 lists the same value under PBS pH 8.0).

In the case of `Nc1ccn([C@@H]2O[C@H](COP(=O)(O)OP(=O)(O)OC[C@H]3O[C@H]4Nc5nc(N)[nH]c(=O)c5N[C@H]4C(S)=C3S)[C@@H](O)[C@H]2O)c(=O)n1` [MCD], in data set [1], the “X-ray crystal structure, 3.4 Å” value was “the MCD cofactor is at the center of their intersection”. In the case of `Cc1cc2nc3c(=O)[nH]c(=O)nc-3n(C[C@H](O)[C@H](O)[C@H](O)COP(=O)(O)OP(=O)(O)OC[C@H]3O[C@@H](n4cnc5c(N)ncnc54)[C@H](O)[C@@H]3O)c2cc1C` [FAD], the “X-ray crystal structure, 3.4 Å” value in data set [2] was “the KdhM-bound FAD cofactor is relatively less restricted from the exterior”.

B1: Kdh holoenzyme (KdhL, KdhM, KdhS); 6-hydroxypseudooxynicotine 2-oxidoreductase; ketone dehydrogenase (Paenarthrobacter nicotinovorans) (protein)
chain: MMAKAKALIPDNGRAGADEGNRQAWIGQEVLRREDRRLLTGTATFAGDLGVPGQLHMRIVRSTQAHARIVSIDATEAEKTPGVRMVITSEHTRHLGSVLLEELGYHEIYENIEDFSHPVLAVDKVLYVGQPVVAVLAVDPYLAEDAAELVSIEYEPLPVLLDPEEALTGKVELFPGRGNEGARIKKAYGDIDRAFAEAEHVIRHKYVTNRHSGVPMEPRAVVVQPDPARDTLFIWGTVHVHDNRRIIAKMLNLPEVNVRMKHVEIGGSFGVKGGVFPENVVAAWAARTLGVPIKWTEDRVEHMTSTSHAREMVHKLELALDAEGRILGMKDEIFHNHGAYFRQAEPLVSDITAGIVFGPYRVPAYDATLHAVFTNKTPVGAYRAPGRYESTFARERIFDLACAEIGLSKTEFRRRNLLTAEDLPWTPGLDIVHEPYHFDSGDVVKHFNEALEAANFSEWLEESKRLRADGRKVGVGLGVLMDKAGLGLFETGGVEVSRAGRVTVKTGGSSVGQGIETVLAQIVAEELQIAPENIDIVHSDTELIPDGVGSWSSRSTVLAGGAARKAALAVVEKARRLASEMLEADPDDLELTAGSFKVKGTDQQISLYEIAAARDPFTARADNDEPGLAADAVYMNNAMNYPYGVTLVQIELDPDTGGHRILRFSTSTEAGRVINPLTTRGQIIGAAVQGIGGALYEEFLYEEDGQPITTSFMDYLLPSAQEMPNVDCFVTEDAKSPDNPFGAKGLGEIGIIAAGAAIASAIDDAIADGVHTDRLPVTPEQIFSRCQGLNKAER
notes: kdhLMS co-expressed from pART2-kdhLMS in A. nicotinovorans pAO1; Ni-NTA (tag not described) and Superdex 200; KdhL 87 kDa, KdhM 287 residues, KdhS 160 residues; heterotrimer, dimer of heterotrimers in crystal; with 6-hydroxypseudooxynicotine dehydrogenase complex subunit alpha; 6-hydroxypseudooxynicotine dehydrogenase complex subunit beta
The Km is the substrate concentration at which the rate is half of its maximum. As a reminder, the kcat is the maximal rate divided by the concentration of active sites. As usually defined, the kcat/Km is the second-order rate constant that governs catalysis at low substrate concentration. Consider B1, for which, in “purified protein”, the Km worked out at 12.5 ± 0.9 µM, the kcat came to 9.03 ± 0.12 s⁻¹ and the kcat/Km came out at 720000 ± 130000 M⁻¹ s⁻¹.

The values above are taken from PMC8305194, “Structural, Mechanistic, and Functional Insights into an Arthrobacter nicotinovorans Molybdenum Hydroxylase Involved in Nicotine Degradation” (Molecules, 2021).
